From patent US20250332297A1, “DLL3-SPECIFIC BINDING CONSTRUCTS AND THEIR USE IN RADIOTHERAPY” (MOLECULAR PARTNERS AG, priority 2024, published 2025) come the findings set out here.

As a reminder, the Kd is a measure of binding affinity in units of concentration. Broadly, the koff is the first-order rate constant of dissociation. By kon is commonly meant the second-order rate constant of association.

For assay [1], the target named is T1, Dog DLL3-NTD (truncated dog DLL3, N-Terminal Domain, residues 27-189, C-terminal 6xHis and Avi-tag) (dog, UniProt A0A8I3MXZ5 27-188, biotinylated at the Avi-tag).
T1 construct: also called dog NTD; not shown: C-terminal 6xHis and Avi-tag
T1 sequence: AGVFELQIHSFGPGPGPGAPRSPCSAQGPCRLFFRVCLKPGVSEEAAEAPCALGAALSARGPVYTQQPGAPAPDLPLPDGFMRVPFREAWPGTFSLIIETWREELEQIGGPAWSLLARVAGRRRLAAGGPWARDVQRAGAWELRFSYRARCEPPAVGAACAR
Description: SPR (ProteOn), biotinylated dog DLL3-NTD on chip, DARPin conjugate as analyte, 1:1 Langmuir fit. As for the experimental part:
(§1) The data were generated using BioRad ProteOn instrument in SPR running buffer (PBS, pH 7.4 containing 0.005% Tween 20©). […] The chip was coated with biotinylated target to reach a signal intensity of 1516 RU (human ECD), 257 RU (human NTD), 1500 RU (cyno ECD) and 228 RU (dog NTD). […] Each injection was followed by a regeneration step with 16 mM H₃PO₄ for 18 s. […] The obtained SPR traces were used to determine on-rate and off-rate interaction parameters.

Assay [2] has as its target T2, human serum albumin (human, UniProt P02768 25-609).
T2 construct: also called HSA
The experiment in a line: SPR (ProteOn), HSA on chip, DARPin conjugate as analyte, 1:1 Langmuir fit. As for the experimental part: (§2) SPR multi-trace analyses were performed similarly as described in previous Examples.
(§3) All analytes (3-fold dilution ranging from 600-7.41 nM) were injected in succession for 240 s and dissociation was recorded for 600 s using a constant flow of 25 μl/min (HSA) or 100 μl/min (MSA) (25 μl/min).

The target of assay [3] is T3, Human DLL3-ECD (recombinant extracellular domain of human DLL3, Examples 11, 17 and 19) (human, UniProt Q9NYJ7 27-466, biotinylated at the Avi-tag where immobilised (Examples 11 and 19)).
T3 construct: also called hDLL3-ECD; human ECD; not shown: Avi-tag and Fc knob into hole (order depends on the format)
T3 sequence: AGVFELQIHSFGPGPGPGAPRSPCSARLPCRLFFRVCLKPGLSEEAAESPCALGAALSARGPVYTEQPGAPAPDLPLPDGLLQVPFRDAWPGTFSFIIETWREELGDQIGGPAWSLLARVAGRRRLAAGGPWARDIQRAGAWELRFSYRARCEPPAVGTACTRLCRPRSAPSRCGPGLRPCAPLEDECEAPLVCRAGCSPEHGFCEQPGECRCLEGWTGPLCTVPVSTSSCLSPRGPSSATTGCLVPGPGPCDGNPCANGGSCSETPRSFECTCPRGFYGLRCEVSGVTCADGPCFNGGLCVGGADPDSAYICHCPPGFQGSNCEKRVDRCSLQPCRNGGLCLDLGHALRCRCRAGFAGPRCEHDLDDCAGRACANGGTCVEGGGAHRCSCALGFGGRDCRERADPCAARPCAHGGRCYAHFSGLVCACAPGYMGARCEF
Description: SPR (ProteOn), biotinylated human DLL3-ECD on chip, DARPin conjugate as analyte, 1:1 Langmuir fit. As for the experimental part: as §1

Assay [4] deals with T4, mouse serum albumin (mouse, UniProt P07724 25-608).
T4 construct: also called MSA
T4 sequence (P07724 25-608 limits assumed): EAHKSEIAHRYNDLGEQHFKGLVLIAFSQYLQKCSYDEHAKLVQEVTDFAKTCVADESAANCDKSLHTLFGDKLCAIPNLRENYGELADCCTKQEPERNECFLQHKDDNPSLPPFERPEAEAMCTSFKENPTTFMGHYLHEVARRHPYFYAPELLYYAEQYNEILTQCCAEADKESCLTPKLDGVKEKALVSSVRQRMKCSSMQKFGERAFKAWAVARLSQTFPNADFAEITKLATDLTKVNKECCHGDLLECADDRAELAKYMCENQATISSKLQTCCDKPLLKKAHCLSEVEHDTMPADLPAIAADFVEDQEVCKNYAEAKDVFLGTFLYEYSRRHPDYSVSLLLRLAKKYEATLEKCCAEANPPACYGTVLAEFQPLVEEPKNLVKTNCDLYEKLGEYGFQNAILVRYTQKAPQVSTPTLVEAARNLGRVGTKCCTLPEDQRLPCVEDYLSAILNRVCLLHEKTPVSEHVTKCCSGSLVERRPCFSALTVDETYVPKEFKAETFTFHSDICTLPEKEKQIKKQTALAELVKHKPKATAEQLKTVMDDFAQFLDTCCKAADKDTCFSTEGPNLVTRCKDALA
Description: SPR (ProteOn), MSA on chip, DARPin conjugate as analyte, 1:1 Langmuir fit. As for the experimental part: as §2, §3

Assay [5] deals with T5, Human DLL3-NTD (truncated human DLL3, N-Terminal Domain, residues 27-189, C-terminal 6xHis and Avi-tag) (human, UniProt Q9NYJ7 27-189).
T5 construct: also called hDLL3-NTD; human NTD; not shown: C-terminal 6xHis and Avi-tag
T5 sequence: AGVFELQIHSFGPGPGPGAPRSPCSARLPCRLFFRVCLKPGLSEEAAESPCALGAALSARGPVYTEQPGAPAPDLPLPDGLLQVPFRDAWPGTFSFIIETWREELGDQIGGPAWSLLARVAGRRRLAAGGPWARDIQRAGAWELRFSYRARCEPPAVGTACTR
Description: SPR (ProteOn), biotinylated human DLL3-NTD on chip, DARPin conjugate as analyte, 1:1 Langmuir fit. As for the experimental part: as §1

Assay [6] deals with T6, Cyno DLL3-ECD (extracellular domain of cynomolgus macaque DLL3, residues 27 to 466, Avi-tag, 3C site, Fc knob … (cynomolgus macaque, UniProt A0A2K5WSR1 27-464, biotinylated at the Avi-tag (Example 11))).
T6 construct: range 27-466; also called cyno ECD; cynomolgus monkey DLL3; not shown: Avi-tag, 3C protease recognition site and Fc knob into hole
T6 sequence: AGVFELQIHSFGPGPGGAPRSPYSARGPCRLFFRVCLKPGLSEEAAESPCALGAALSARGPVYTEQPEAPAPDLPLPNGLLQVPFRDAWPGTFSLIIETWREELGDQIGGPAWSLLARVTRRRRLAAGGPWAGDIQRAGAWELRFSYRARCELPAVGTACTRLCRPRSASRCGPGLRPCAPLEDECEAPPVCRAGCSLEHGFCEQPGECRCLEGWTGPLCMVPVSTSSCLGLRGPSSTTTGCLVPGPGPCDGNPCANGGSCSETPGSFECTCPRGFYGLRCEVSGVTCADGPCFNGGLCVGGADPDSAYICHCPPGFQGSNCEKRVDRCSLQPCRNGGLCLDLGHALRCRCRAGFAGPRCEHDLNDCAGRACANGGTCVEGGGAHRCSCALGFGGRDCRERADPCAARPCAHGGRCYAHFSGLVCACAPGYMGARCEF
Description: SPR (ProteOn), biotinylated cyno DLL3-ECD on chip, DARPin conjugate as analyte, 1:1 Langmuir fit. As for the experimental part: as §1

In assay [7] the target is T3, Human DLL3-ECD (recombinant …). Description: SPR (ProteOn), biotinylated human DLL3-ECD on chip, DARPin conjugate as analyte, 1:1 Langmuir fit (same values as Table 14). As for the experimental part:
as §1

B1: MAM279-DOTAM (GS-MAM279-tag, SEQ ID NO: 15, conjugated to the chelator DOTAM) (designed binder)
chain: GSDLGKKLLEAARAGQDDEVRELLKAGADVNAKDYFSHTPLHLAARNGHLKIVEVLLKAGADVNAKDFAGKTPLHLAADAGHLEIVEVLLKAGADVNAQDIFGKTPADIAADAGHEDIAEVLQKAAGSPTPTPTTPTPTPTTPTPTPTGSDLGKKLLAAAAQGQDDEVRELLKAGANVNAKDLFGYTPLHLAAWRGHLEIVEVLLKAGADVNAKDAAGETPLHLAAWFGHLEIVEVLLKAGADVNAQDLQGKTPADLAAKEGHEDIAEVLQKAAGSGSC
notes: also called DOTAM-conjugated MAM279; MAM279 conjugate
With B1, the Kd came to 1.46 nM in assay [1]; 98.2 nM in assay [2]; 0.243 nM in assay [3]; 274 nM in assay [4]; 0.394 nM in assay [5]; 34.6 nM in assay [6]. Besides, in assay [7], the Kd worked out at 0.243 nM. Further, the koff in assay [1] came out at 4.86e-05 s⁻¹; in assay [2], 0.021 s⁻¹; in assay [3], 1.64e-05 s⁻¹; in assay [4], 0.0425 s⁻¹; in assay [5], 1.99e-05 s⁻¹; in assay [6], 0.00125 s⁻¹. Also, the koff in assay [7] stood at 1.64e-05 s⁻¹. The on-rate (kon) was found to be 33400 M⁻¹ s⁻¹ in assay [1]; 213000 M⁻¹ s⁻¹ in assay [2]; 67400 M⁻¹ s⁻¹ in assay [3]; 155000 M⁻¹ s⁻¹ in assay [4]; 50400 M⁻¹ s⁻¹ in assay [5]; 36000 M⁻¹ s⁻¹ in assay [6]. Further, the kon in assay [7] was 67400 M⁻¹ s⁻¹.
